According to PMC5626701, “Caspase-1 cleaves PPARγ for potentiating the pro-tumor action of TAMs” (Nature Communications, 2017):

Target: T1, HA-tPPARγΔ64D (THP-1) (human, UniProt P37231-2 65-477)
T1 construct: also called truncated PPARγ; source: THP-1, transfected, in cell extract; not shown: HA, C-terminal, kept
T1 sequence (looked up): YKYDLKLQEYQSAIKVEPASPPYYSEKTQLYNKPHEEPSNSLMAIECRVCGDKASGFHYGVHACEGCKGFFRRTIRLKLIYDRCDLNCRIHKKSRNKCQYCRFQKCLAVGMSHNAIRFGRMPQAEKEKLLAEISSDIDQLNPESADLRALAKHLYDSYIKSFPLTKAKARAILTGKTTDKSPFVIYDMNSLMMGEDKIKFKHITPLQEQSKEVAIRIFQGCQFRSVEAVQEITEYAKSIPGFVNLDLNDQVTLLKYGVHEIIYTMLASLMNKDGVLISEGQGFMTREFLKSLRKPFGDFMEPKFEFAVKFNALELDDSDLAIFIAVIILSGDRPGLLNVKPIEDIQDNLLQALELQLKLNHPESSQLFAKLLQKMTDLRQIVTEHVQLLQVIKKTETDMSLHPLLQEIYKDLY
Test: co-IP; THP-1 cells transfected with HA-PPARγ or HA-tPPARγΔ64D; extracts precipitated with anti-HA and blotted with anti-MCAD, or precipitated with anti-MCAD and blotted with anti-HA; blots scanned
Details: partners not purified

fold MCAD bound against full-length PPARγ: 8 fold
B1: medium-chain acyl-CoA dehydrogenase (MCAD), endogenous in THP-1 (enzyme, human (endogenous in THP-1), UniProt P11310 26-421, looked up)
chain: KANRQREPGLGFSFEFTEQQKEFQATARKFAREEIIPVAAEYDKTGEYPVPLIRRAWELGLMNTHIPENCGGLGLGTFDACLISEELAYGCTGVQTAIEGNSLGQMPIIIAGNDQQKKKYLGRMTEEPLMCAYCVTEPGAGSDVAGIKTKAEKKGDEYIINGQKMWITNGGKANWYFLLARSDPDPKAPANKAFTGFIVEADTPGIQIGRKELNMGQRCSDTRGIVFEDVKVPKENVLIGDGAGFKVAMGAFDKTRPVVAAGAVGLAQRALDEATKYALERKTFGKLLVEHQAISFMLAEMAMKVELARMSYQRAAWEVDSGRRNTYYASIAKAFAGDIANQLATDAVQILGGNGFNTEYPVEKLMRDAKIYQIYEGTSQIQRLIVAREHIDKYKN
notes: medium-chain acyl-CoA dehydrogenase (MCAD), mitochondrial; detected and precipitated with an anti-MCAD antibody; source: endogenous, THP-1 cell extract
